For one substance, Kd results are on record in article PMC5201196.

For this test, the target named is protein G´e (protein G prime e, extended). The test can be described thus: MST.

The substance IgG (antibody) gave a Kd of 9.4 nM.

The Kd is the equilibrium constant for the complex coming apart. A low value points to a tighter complex.
